This is an account of results in the DeepSol protein solubility set.

A short description of the data set: soluble on expression in E. coli; label from the status in PepcDB or PDB records.
Consider “GIDPFTGIDPFTGTQACITAASAVSGIIADLDTTIMFATAGTLNREGAETFADHREGILKTAKVLVEDTKVLVQNAAGSQEKLAQAAQSSVATITRLADVVKLGAASLGAEDPETQVVLINAVKDVAKALGDLISATKAAAGKVGDDPAVWQLKNSAKVMVTNVTSLLKTVKAVEDEATKGTRALEATTEHIRQELAVFCSPEPPAKTSTPEDFIRMTKGITMATAKAVAAGNSCRQEDVIATANLSRRAIADMLRACKEAAFHPEVAPDVRLRALHYGRECANGYLELLDHVLLTLQKPNPDLKQQLTGHSKRVAGSVTELIQAAEAMKGT”, for which the “soluble on expression in E. coli” value was “soluble”.
“MGSDKIHHHHHHMKESGNFEFDDVQGLLRFGYGKLADTCFMLLKIADASAARQWLSTAPVSSAIAIHPPPDTALQIAFSVQGLRALGIDESIIDGFSDEFVHGMTRNENCSRRLGDIGHNAPKYWKWGEGADVPHILLLLYARKGGLDAWKATVEGEYFSQAFQLLQYLPTSDMGRTDPFGFEDGISQPAIDWADRHDTDSHANDRYTNLLAAGEMVLGYPNEYGQYTARPLIDLQKDRFAVNLPDAKDDPARKDFGRNGTYLVLRQLEQNVPGFWQFLDKVSDSIPEKRERLAASMVGRERNGTPLIAEHIPGILPKDHGNHFTYDLDPKGNHCPVSAHVRRANPRTGDLPTAVTGTGAIALINRLVKILGFGQKPEEDLIASSRFHRLLRRGRSYGPVLAPGDAVKPDAPAAERGLQFICLVANIGRQFEFVQNAWIVNGKFGGLQEEPDPLLGNREPMINGNSTDHFNRPTSSGSMQKTCHLPQFTTVLGGGYFFMPGLRALKYISALPANGNGGSS”: the “soluble on expression in E. coli” value was “not soluble”.
Regarding “GPGSMNKSAKDTANPLFPATAIATIDVRAIVANYRTLAQHVAPTECSAVVKANAYGLGAHKIAPALYQAGCRTFFVAQIEEALQLKAVLPENVMIALLNGFPHKAEEFVAQSGIIPLLNSWSTIEDWQTLCQKKNKKFPAIIQVDTNMSRLGLDKKELQKLIKNPTIFEKAEIKYILSHLANGEDASHSSNNKQLAAFKRVLAQLPTCKVSFANSGGIFLGSDFYFDLVRPGIALYGVDPHGKHPTPLKAVVKVEAQVLQSRFIDAGIPVGYRESFMTRRPSTLATISIGYADGWPRILSNKGTVYFNGHKLPIVGHISMDSIIVDATDLDKKPQRGDWVELIGPHQPLEKVSTDTNTIPHEILTSLGKRYKRIYI”, the “soluble on expression in E. coli” value is reported as “soluble”.
In the case of “MKKFVALILGCITICGLYGCSKNSSQIINKTFSLPAYNRIEIDSANDDIKIISGKHYRVRYVGQNKLKPTIKVKNGVLVIDSPKKSTIINSNIFGSKNIKQTLTIEMPKKELKYLSVDTSNGDVSVDYLEVQKGTIDTSNGNVNLKNLITKKDFEIDTSNGTVKVGKSNVEGYALSTSNGSIVVKGENKSDEFEKNTSAKNVLSIDTSNGNIYVNLEHHHHHH”, the “soluble on expression in E. coli” value is “not soluble”.
On to “PIELLPETPSQTAGPYVHIGLALEAAGNPTRDQEIWNRLAKPDAPGEHILLLGQVYDGNGHLVRDSFLEVWQADANGEYQDAYNLENAFNSFGRTATTFDAGEWTLHTVKPGVVNNAAGVPMAPHINISLFARGINIHLHTRLYFDDEAQANAKCPVLNLIEQPQRRETLIAKRCEVDGKTAYRFDIRIQGEGETVFFDF”, for which the “soluble on expression in E. coli” value is reported as “soluble”.
Next, “MGSDKIHHHHHHMKIAIASGKGGTGKTTVAVNFAQVLAAAGQEVTLLDCDVEEPNVHLFLHPEFDSVSAVETTIPQVDEEKCTGCRVCAEVCEYHALAVLGKNVLVFPELCHACGACVRFCPEEAIVEIPREIGTIRKGRKGKIRLIEGRLNVGEVMSPAVIERVKKIGLDGKIGIIDAPPGTSCPVIAAVRDTDGVLLVTEPTPFGLYDLKLAVGMVRLLGIPCAVAINRSDLGEKELWRYCSDERIPIILEIPNDRRIAEAYSRGRTIIEELPEYREKFLQGWQALLESCSIA”: “not soluble”; “DTLANAVYLRLMTPLGGWWADPTLGSRLHELSRSKDSNRIDLLACQYAEQALQPLLQDGRASRVQVSSQRQGPGRLLLNIEVAETGGHIRHFQHQVRI”: “not soluble”.
Next, “MGSDKIHHHHHHMATEIIYMVKDWFEWHDLYKNEPKLQQRLQIVQEYISYSLNLPEPGLIRVVSVCAGDGRDLLGTLSNHPRAKDVYARLVELNPHLVERGQQTIESLGLTKQIEFINGDATLSSNYLGAVPADIVIVCGVFGNLADEAELNRLLANLSFLSKQGAFVIWTRGHSNGIPHSETVRKFFREYGFEEVNFKLTATGDMGVGIHRYLGESLAAPKEQQFFAFTGVPSKAR”: “not soluble”.
Consider “MAHHHHHHMLRLSFVHRKSRHQNVLRRGRPHMQKYRELNRWQRQAQGISKWDQSQSHRPLPYVERFNPEGVGVTRGTSAFAWQWWHTQQPWLPNVAPPNHTGRKITNTSGTTEETAKPPAWDEEFTSVVLSMTDSEIREYLLDKLTDVIFAETQRDGYELRRLDFEGNPLTELPERRIIESFVFEEETLRERVIYQVVEGVFRLSPTSADRRELRSVETIIDYVLTHVSAARPDSRPRVTPAALAVMQQCPLQPELGFVHALPVDSRDEILQEWERMHHLDWQFGKAVYVPRSREETRGNLTWLREERHNAERVEFMKRVASGEAKAEHMRRIAEAACTERPETMHG”, for which the “soluble on expression in E. coli” value was “not soluble”.
Regarding “LMPTERIDINEREDCTASEMTAPTVPVALVTGAAKRLGRSIAEGLHAEGYAVCLHYHRSAAEANALSATLNARRPNSAITVQADLSNVATAPVSGADGSAPVTLFTRCAELVAACYTHWGRCDVLVNNASSFYPTPLLRNDEDGHEPCVGDREAMETATADLFGSNAIAPYFLIKAFAHRVAGTPAKHRGTNYSIINMVDAMTNQPLLGYTIYTMAKGALEGLTRSAALELAPLQIRVNGVGPGLSVLVDDMPPAVWEGHRSKVPLYQRDSSAAEVSDVVIFLCSSKAKYITGTCVKVDGGYSLTRA”, the “soluble on expression in E. coli” value was “soluble”.
In the case of “MGSDKIHHHHHHMGSYPDGKRIFVKMNTSPILPGLAREQIAPQLLWSRRLADGRDMCAQEWLTGKILTPYDMNRKQIVNILTRLHRSRPLMTQLSRLGYAMETPVDLLQSWQETAPDALRKNHFISEVMADLRQTIPGFREDHATIVHGDVRHSNWIETDSGLIYLVDWDSVRLTDRMFDVAHMLCHYISEHQWKEWLTYYGYKYNQTVLSKLYWYGQLSYLSQISKYYMNQDLENVNREIHGLRHFRDKYGKRR”, the “soluble on expression in E. coli” value is “not soluble”.
In the case of “MTLYIGMNNTSGKAITDIDHLRQSVRDILLTPQGSRIARREYGSLLSALIDQPQNPALRLQVMSAVYVALSRWEPRLTLDSITINSHFDGSMVVELAGRRNNGVPVSLSVSTGAENGSD” it was “not soluble”; in that of “MLSRNIGAVRGAHKAATTKPVEKVAKLGNGLTVGTIDSHKPIAHLVLAFRAGSRYEKANQAGLSHTIRNFVGRDTQEYFGNTVVWTLSQTGGVLKSFTSRDLFGVSLTIPRESTSVGLSVLGQVAGNPGFKPWEVEDVLPTMRADNGYRTAYDLVVDQIHKAAYRNGGLGNSIYAPCSKIGSICTSTLSSFAEQHFVTGNGVLFATNAVHDDLLLYGDNHAPIRSGNAASPSSSAYKGGEVRRDADSKYAHVIVAGEGAAGNNTKALATQAVLLTALGNSSPVKFNTGTTGVIAKAVGQNGSASAFQAVHADSGLAGVYLVVEGSQANQAVSNVVGALKSLKVADIEAVKKQAFNNALRASAHSDNFAIERASQLFQSQDNYIQQIPNVSASDVEVAAKKLTTKLSLASYGNVSEVPYVDTL”, “not soluble”; in that of “FNDEGEMHLPGQYDMLKARLAKNPGAELLIFIHGWHHNAAPTDDNFVAFQRFHRQMAKTNPGLIGLYIGWRGDQYDPLWLDGSDDPESRVEALDFPTILTSKQVARRVGEHGVRKLLSSLDELHRQGTLGRYILVGHSLGGVVALHA”, “not soluble”.
Next, “MLTDLSIRNLAIIDSLHVSFDRGLTVLTGETGAGKSIIIDAVNLIMGGRASAELVRTGEEEATVEALFSLPTDAPLGQRLAAMGLDCDGELLVKRVVSRSGRNRVFIGGGLSTLAMLSDISRELVNIYGQHESQTLLRPENHLRLLDGFAGLDSLRADYAAIFDRYRETEARLRELDEGEREAARRLDLLSFQVEEIHAAALAPGEEEALAGERELLVNAERLSRGSEEAYEALYGDESSVLHLLARVKGRVAEISGVDASLAPLLDVVESAAAQLEDAALTLRGYGARIEADPARLEAVDERLDLIRRLKKKYAPTVEEIIAYGEEAAREMELLLNRDRTRSDLDRELETLAGRVRETGHGLSAKRHEAAKRLKAAMEREIHELAMKHALFDVAFEELPEPRQTGLDSVTFLFSPNPGEEPKPLARIASGGELSRLMLALKQVHPESDVPTLIFDEVDTGIGGATSALVGEKLKRVSRAQQVLCITHHPQVAAFADRHYKVEKRVEGGRTATAVTPLEGEDRVAEMARMLGGVTITGTTLDHAREMIEGARRAAVGG”: “not soluble”; “MSFSESRHNENCLIQEGALLFCEQAVVAPVSGDLVFRPLKIEVLSKLLAFIDGAGLVDTTYAESDKWVLLSPEFRAIWQDRKRCEYWFLQQIITPSPAFNKVLALLRKSESYWLVGYLLAQSTSGNTMRMLGEDYGVSYTHFRRLCSRALGGKAKSELRNWRMAQSLLNSVEGHENITQLAVNHGYSSPSHFSSEIKELIGVSPRKLSNIIQLADK”: “not soluble”.
On to “GPGSMPAINREELDRRVEQIYDQVVAWRRYIHENPDLSFEEQPTAAYIKGELQKMDAEGRWLHISQPESNCVVADLKGGGGDGPIIALRADIDALPVEELTDVPFASKKQGVMHACGHDTHAAMLLGATKLLLEDAGRIKGTVRLLFQPAEEVPPGGAQMMIEKGCMEGVAMVFAEHIIPMKEGPTGTVLVKRGPFLSSSDTLHVEIIGRGGHASMPESSIDPIAIACLAVTALQQVVSRRMPPSKCPILTITTIASSSDSYNVIPDRVTLKGTLRTQDREVRENAKKAVAEVLHGICGSYGAMCSLNWLPGYDVTVNTDSAYDVGMRVFAQVLPSKDQVVVLSACMSPSEDFSEFAKVAPANYVGIGCYNPGKGCTAVNHNAKFCVDEEAMKVGVKVHYGTIHELLMQ”, for which the “soluble on expression in E. coli” value is given as “not soluble”.
Regarding “MSLDIAELHRAGDDIKEMMKSEGYYSEPSKYEAELSDGNITFAYSYPIKAFEKFLGYYDRENRIAFNPSISMRTDFSFCLAACRYRKNGKTDTVVLDGYADNKYYKKAKFALDKFRSEYSINGSFDFYIKRYRRYQKAKGLSESSAVAAAVSRALISNVFGDDAAKDDIFVSRYARLVSGSGTRAAHDGISMWLSYPGMDSRDCVAFKVGKSNENLNYGVFPKYSDVATDNAHSIAVNSVFYGTWVSEKFSNVKRLISDHFDINDLLKIGENDMLRLNSILMSGGLIIQTPDSLRILKEILKFKSKNEGFYFTADTGPSIAIFSFDRSLIDEFRENVNDEYIEGSYDFKGYNNRMRDFIREAQEYFTQTPGEDEEDREGHHHHHH”, the “soluble on expression in E. coli” value is listed as “soluble”.
Next, “SMEEKLKKTNIIFVVGGPGSGKGTQCEKIVQKYGYTHLSTGDLLRSEVSSGSARGKKLSEIMEKGQLVPLETVLDMLRDAMVAKVNTSKGFLIDGYPREVQQGEEFERRIGQPTLLLYVDAGPETMTQRLLKRGETSGRVDDNEETIKKRLETYYKATEPVIAFYEKRGIVRKVNAEGSVDSVFSQVCTHLDALLN”: “soluble”.
Take “MGSDKIHHHHHHMEKSKYKRDWSKYDENVITRYKLMFPFYVFEHWWDLLAEENRNARTKYKAPKEFNEFLAFLHIFLPYRAIEGVLRALEQLKIIPTSLDYSTIWERVRNMNITFPETSDELEVIADATGISTNTGGQYIVAKWGKTRDSKFLKIEIVMDNNEFNVINAEVTSNEVESAVKTVKDLQDKGKKVKKFYGDKAYDANEVYKTGVEVVVPPKKNASTKRHLARRKAVREFRKLGYDRWKEEKGYGVRWRVESLFSAVKRTFGESVRQVLLGK”: the “soluble on expression in E. coli” value is “not soluble”.
